US20200087392A1 (Novartis, published 2020)

Target: T1, human β-klotho (human, UniProt Q86Z14 52-997, limits assumed)
T1 construct: Antigen of the SET assay; also called beta-klotho
T1 sequence: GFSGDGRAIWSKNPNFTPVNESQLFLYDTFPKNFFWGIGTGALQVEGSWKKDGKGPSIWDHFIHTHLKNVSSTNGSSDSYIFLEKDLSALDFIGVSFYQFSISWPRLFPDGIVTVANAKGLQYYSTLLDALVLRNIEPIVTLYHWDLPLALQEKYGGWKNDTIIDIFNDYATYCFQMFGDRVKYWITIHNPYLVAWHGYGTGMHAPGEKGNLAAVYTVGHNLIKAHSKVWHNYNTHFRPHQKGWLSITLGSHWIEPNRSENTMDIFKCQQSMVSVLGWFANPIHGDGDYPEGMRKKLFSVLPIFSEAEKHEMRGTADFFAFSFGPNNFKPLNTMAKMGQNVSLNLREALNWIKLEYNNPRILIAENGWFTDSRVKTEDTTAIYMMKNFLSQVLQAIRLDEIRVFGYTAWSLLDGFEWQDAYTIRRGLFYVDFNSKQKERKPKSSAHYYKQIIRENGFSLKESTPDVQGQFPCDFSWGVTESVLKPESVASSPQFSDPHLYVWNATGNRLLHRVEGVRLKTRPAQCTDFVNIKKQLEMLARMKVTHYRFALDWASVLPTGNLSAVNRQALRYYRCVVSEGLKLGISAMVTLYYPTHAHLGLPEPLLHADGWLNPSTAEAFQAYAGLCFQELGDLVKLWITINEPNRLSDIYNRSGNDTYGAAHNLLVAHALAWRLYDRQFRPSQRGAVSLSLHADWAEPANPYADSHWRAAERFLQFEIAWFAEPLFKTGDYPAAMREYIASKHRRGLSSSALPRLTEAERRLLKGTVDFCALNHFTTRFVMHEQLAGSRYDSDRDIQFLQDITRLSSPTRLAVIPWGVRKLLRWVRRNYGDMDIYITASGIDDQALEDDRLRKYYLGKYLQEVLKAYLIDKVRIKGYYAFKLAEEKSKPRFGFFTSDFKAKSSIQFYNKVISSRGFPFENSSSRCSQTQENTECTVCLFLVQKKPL
Assay: solution equilibrium titration (SET)

B1: NOV001 (antibody, human IgG1, kappa, L234A L235A, V domains shown)
VH: QVQLVQSGAEVKKPGSSVKVSCKASGYTFTDYYINWVRQAPGQGLEWMGRIHPGSGNTYYNEKFQGRVTLTADKSTSTAYMELSSLRSEDTAVYYCAILLLRSYGMDDWGQGTTVTVSS
VL: DVVMTQTPLSLSVTPGQPASISCKSSQSIVHSSGNTYLEWYLQKPGQSPQLLIYKVSNRFSGVPDRFSGSGSGTDFTLKISRVEAEDVGVYYCFQGSHIPYTFGQGTKLEIKR
notes: also called IgG1 LALA version of NOV003
Kd: ~42 pM
